Experimental data published in publication PMC4195687, “Computational and Experimental Characterization of dVHL Establish a Drosophila Model of VHL Syndrome” (PLoS ONE, 2014).
Where no end group is shown, it is not given here. [ ]: non-standard residue; d: D form. Hyp = O=C(O)[C@@H]1C[C@@H](O)CN1

T1: Drosophila von Hippel-Lindau protein dVHL (Drosophila melanogaster, UniProt Q9V3C1 1-178)
T1 construct: Drosophila melanogaster VHL (dVHL), ORF re-engineered to E. coli codon usage, cloned in pET14b (NdeI/XhoI); migrated as a 19 kDa protein; also called Drosophila VHL
T1 sequence (looked up): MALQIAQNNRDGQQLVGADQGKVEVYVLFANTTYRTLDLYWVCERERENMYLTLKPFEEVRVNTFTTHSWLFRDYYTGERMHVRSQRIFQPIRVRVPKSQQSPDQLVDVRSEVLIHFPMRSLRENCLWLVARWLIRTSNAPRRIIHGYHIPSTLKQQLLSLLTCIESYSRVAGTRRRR


How the values were obtained:
[1] = target: T1, Drosophila von Hippel-Lindau protein …; experiment: ELISA; ELISA-based binding assay: pVHL or dVHL (10 µg/ml, 500 nM, in 10 mM Tris-HCl pH 8, 200 mM NaCl, 200 mM GnHCl) coated on the plate overnight at 4°C, blocked with 5% BSA; TAMRA-labelled peptide at increasing concentrations, 1 h at 25°C; fluorescence at 580 nm, after subtraction of the BSA control; details: both partners purified
[2] = target: T2, human von Hippel-Lindau tumor suppressor protein pVHL (19 kDa) (human, UniProt P40337-3 1-160); experiment: as above; details: both partners purified
T2 construct: numbers count on: the 30 kDa isoform (Y98, W117 and so on)
T2 sequence (P40337 54-213): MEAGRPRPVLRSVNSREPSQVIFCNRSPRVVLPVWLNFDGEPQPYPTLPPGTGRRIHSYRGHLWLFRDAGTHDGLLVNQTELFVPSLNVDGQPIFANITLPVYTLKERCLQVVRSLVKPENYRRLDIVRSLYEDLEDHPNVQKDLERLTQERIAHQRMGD

binding result [1]	fold stronger binding than to dVHL [2]	Binder
binds	~1.5 fold	SFEAFAGRA[Hyp]YIPIDDD (also: TAMRA label, position not given here, Drosophila SIMA (fly homolog of HIF1-α), residues 841-857 of its ODD; The peptide has two prolines (P850 and P853); by its name the hydroxylated one is P850; also called SIMA-derived peptide; source: synthetic peptide (Hy Laboratory Ltd, Israel)) [Hyp850-ODD-SIMA peptide (SIMA residues 841-857, hydroxyproline 850, TAMRA-labelled)]
binds	~1.5 fold	DALTLLA[Hyp]AAGDTIISLDF (also: TAMRA label, position not given here, human HIF1-α, residues 395-413 of the oxygen dependent degradation domain; also called HIF1-α P402; HIF1-α-derived peptide; source: synthetic peptide (Hy Laboratory Ltd, Israel)) [Hyp402-ODD-HIF peptide (HIF1-α residues 395-413, hydroxyproline 402, TAMRA-labelled)]
